In the Human Domainome abundance scans (Beltran et al. 2025):

B1: 1-phosphatidylinositol 4,5-bisphosphate phosphodiesterase gamma-2, residues 772 to 827; numbered along this chain, P16885 (parent)
chain: RTVKALYDYKAKRSDELSFCRGALIHNVSKEPGGWWKGDYGTRIQQYFPSNYVEDI

Variants of: B1
Test: abundance fitness (aPCA) (normalised: wild type 0, dead -1); higher = more abundant; growth selection in yeast, the domain comes from the species named
Conditions: Homo sapiens

Abundance fitness: each site, then its substitutions
L24: V -0.046; A -0.659; H -0.335; Y 0.041; K -0.215; E -0.083; T -0.222; C -0.044; Q -0.267
V28: S -0.836; A -0.873; T -0.486; R -0.788; Q -0.762; N -0.671; W -0.793; M -1.08; K -0.623; C -0.568; D -0.821
W36: F -0.308; K -0.705; S 0.22; R -0.724; E -0.809; I -0.611; C -0.108; M -0.108; Q -0.839; D -0.576; L -0.095; G -0.58; T -0.89; Y -0.368; A -0.214
S18: R -0.936; L -0.987; V -0.914; D -0.201; A -0.862; E 0.018; P -0.907; G -0.679; C -0.512; T -0.187; F -0.927; N -0.619
S14: P -0.439; Y -0.304; R 0.026; W -0.334; Q 0.037; N -0.316; H -0.107; V -0.16; E -0.206; D -0.053; G -0.007; T -0.291; F 0.024; M 0.024; L -0.167; K -0.172; I 0.031
W35: P -0.616; I -0.611; M -0.225; T -0.281; G -0.625; E -0.217; K -0.58; R 0.089; S -0.273; L -0.058; D -0.381; A -0.383; V -0.29; F 0.044
K30: E -0.042; P 0.246; H -0.054; C -0.077; G -0.576; V -0.047; F -0.21; A -0.195; T -0.245; N -0.167; Q -0.208; Y 0.039; L -0.169; W -0.293; D -0.214; M -0.092; I 0.245; R -0.05
A23: Y -0.059; I -0.613; W -0.858; Q -0.595; V -0.296; T -0.065; K -0.745; C -0.092; S -0.154; N -0.131; H -0.471; R -0.698; D 0.096; F -0.314; E -0.052
G22: C -0.86; H -0.704; D -0.236; M -0.52; N -0.364; F -0.802; P -0.688; K -0.203; T -0.872; V -0.911; E -0.418; S -0.681; Y -0.856; R -0.775; L -1.14; W -0.811
R21: F -0.235; S -0.285; V -0.122; L -0.79; N -0.086; K -0.247
P32: Q 0.022; L -0.014; N 0.256; D -0.087; W -0.406; R -0.166; Y -0.278; C -0.275; M 0.093; S -0.011; A 0.056; K -0.229; F -0.247; G -0.115; E 0.126; V -0.315
H26: P -1.1; V -0.035; M -0.069; K -0.221; Y -0.121; L -0.081; W -0.072; S 0.01; G -0.43; A -0.113; F 0.012; D -0.173; C -0.087; N -0.198; E -0.002; Q -0.005; I -0.084; T 0.034
